One assay addresses T1, R-cadherin (Mus musculus, UniProt P39038).
T1 construct: expressed in transfected cells
T1 sequence (P39038 167-913): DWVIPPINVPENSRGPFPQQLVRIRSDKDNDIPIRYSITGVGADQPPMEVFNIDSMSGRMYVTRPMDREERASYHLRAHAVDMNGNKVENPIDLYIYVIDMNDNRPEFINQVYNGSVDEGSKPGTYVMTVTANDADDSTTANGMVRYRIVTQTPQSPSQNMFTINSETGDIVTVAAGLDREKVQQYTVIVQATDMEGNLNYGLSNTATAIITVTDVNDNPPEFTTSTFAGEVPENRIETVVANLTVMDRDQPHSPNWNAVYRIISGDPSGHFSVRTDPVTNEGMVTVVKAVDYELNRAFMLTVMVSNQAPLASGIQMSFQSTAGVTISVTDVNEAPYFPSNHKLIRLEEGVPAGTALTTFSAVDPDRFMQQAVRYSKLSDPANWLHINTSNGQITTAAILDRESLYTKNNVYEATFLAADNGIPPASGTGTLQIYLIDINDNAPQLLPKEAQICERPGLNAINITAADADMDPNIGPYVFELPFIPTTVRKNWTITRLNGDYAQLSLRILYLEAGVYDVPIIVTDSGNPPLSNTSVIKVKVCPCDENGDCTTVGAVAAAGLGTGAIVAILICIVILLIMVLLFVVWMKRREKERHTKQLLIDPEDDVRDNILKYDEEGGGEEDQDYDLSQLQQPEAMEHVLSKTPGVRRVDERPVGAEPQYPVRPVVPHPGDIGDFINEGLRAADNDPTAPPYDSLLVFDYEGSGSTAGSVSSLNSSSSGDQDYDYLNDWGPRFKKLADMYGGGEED
Nature of the assay: Aggregation assay, R-cadherin transfected L-cells. In kind it is cell-based. The note with it: R-cadherin expressing L-cells. An excerpt:
(§1) Mouse R-cadherin and N-cadherin plasmids were generous gifts from Dr. Masatoshi Takeichi (Kyoto University, Japan). The plasmids were sub-cloned into pDsRed2 N1 vectors (Clontech) to encode for fusion proteins with Red Fluorescent Protein (RFP) attached to the C-terminal end of the cadherin molecules. L-cells (mouse fibroblast L929 cells, ATCC #CRL-2148) were stably transfected with either R or N-cadherin pDsRed2 N1 using the Calcium Phosphate Transfection System (Life Technologies) according to the manufacturer's protocol. After screening by growth in media supplemented with Geneticin (700 μg/mL G418 Geneticin, Gibco BRL), positive clones were selected. Cells were examined for expression of RFP, and were tested for cadherin expression by immunoblotting and immunofluorescence staining. FIG. 6 illustrates the aggregation of L-cells expressing R and N-cadherins.
L-Cells were grown to near confluency followed by trypsinization with 0.01% trypsin+5 mM CaCl2 and no EDTA (TC) or 0.01% trypsin with 0.1 mM EDTA and no calcium (TE). The cells were collected and washed, followed by resuspension in Hanks buffer solution (HBSS)+1% BSA with (TC) or without (TE) 5 mM CaCl2. Cells were incubated at 37° C. in 0.5 mL solution at 2×10^5 cells per well of a 24 well plate with rocking at about 60-70 rpm with varying peptide concentrations. All assays were performed in triplicate. The extent of cellular aggregation was represented by the ratio of the total particle number after 2 hours of incubation (N2hr) to the initial particle number (N0). Particles were counted on a hemocytometer using the sum of 8 separate 20 μL counts/well, before (N0) and after (Nt) incubation. […]
Mouse fibroblast cells (lineage L929), commonly referred to as L-cells, were chosen because they are known to contain no endogenous cadherin expression. […] Immunoblot analysis detected high levels of R-cadherin and no N-cadherin expression in R-cadherin clone 8 (R-cad8), while high levels of N-cadherin expression and no R-cadherin expression was found in N-cadherin clone 3 (N-cad3), as shown in FIG. 7. […]

Another assay has as its target T2, N-cadherin (Mus musculus, UniProt P15116).
T2 construct: expressed in transfected cells
T2 sequence (P15116 160-906): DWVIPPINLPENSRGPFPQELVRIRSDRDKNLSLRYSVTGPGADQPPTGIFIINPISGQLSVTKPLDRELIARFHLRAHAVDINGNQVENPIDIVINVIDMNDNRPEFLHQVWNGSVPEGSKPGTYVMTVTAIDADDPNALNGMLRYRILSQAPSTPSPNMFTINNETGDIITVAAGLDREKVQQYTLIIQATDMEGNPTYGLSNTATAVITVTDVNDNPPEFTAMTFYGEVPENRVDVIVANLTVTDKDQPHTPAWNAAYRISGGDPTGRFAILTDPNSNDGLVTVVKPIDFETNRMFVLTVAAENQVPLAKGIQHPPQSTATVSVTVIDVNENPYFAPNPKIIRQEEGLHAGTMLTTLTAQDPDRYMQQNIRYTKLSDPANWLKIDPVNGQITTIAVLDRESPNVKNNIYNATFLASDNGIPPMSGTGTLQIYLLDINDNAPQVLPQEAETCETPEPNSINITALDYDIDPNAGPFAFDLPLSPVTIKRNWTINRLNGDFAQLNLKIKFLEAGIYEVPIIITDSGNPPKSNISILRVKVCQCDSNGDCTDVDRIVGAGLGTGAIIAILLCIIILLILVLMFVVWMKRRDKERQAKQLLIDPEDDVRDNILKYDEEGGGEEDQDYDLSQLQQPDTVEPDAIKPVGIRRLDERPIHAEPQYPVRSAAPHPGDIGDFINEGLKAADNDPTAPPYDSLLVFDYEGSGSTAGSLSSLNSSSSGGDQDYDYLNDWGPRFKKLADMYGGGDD
Briefly: Aggregation assay, N-cadherin transfected L-cells. It counts as cell-based. The following applies: N-cadherin expressing L-cells; for pIC50: 2 hours incubation, 5 mM CaCl2, read-out: IC50, inhibition of N-cadherin mediated aggregation.
Text: as §1
L-Cells were grown to near confluency followed by trypsinization with 0.01% trypsin+5 mM CaCl2 and no EDTA (TC) or 0.01% trypsin with 0.1 mM EDTA and no calcium (TE). The cells were collected and washed, followed by resuspension in Hanks buffer solution (HBSS)+1% BSA with (TC) or without (TE) 5 mM CaCl2. Cells were incubated at 37° C. in 0.5 mL solution at 2×10^5 cells per well of a 24 well plate with rocking at about 60-70 rpm with varying peptide concentrations. All assays were performed in triplicate. The extent of cellular aggregation was represented by the ratio of the total particle number after 2 hours of incubation (N2hr) to the initial particle number (N0). Particles were counted on a hemocytometer using the sum of 8 separate 20 μL counts/well, before (N0) and after (Nt) incubation. The results are illustrated in FIG. 8.
Mouse fibroblast cells (lineage L929), commonly referred to as L-cells, were chosen because they are known to contain no endogenous cadherin expression. R-cadherin stable transfectants were created and used to test the effects of the designed peptides on R-cadherin mediated aggregation. N-cadherin stable transfectants were also created and used to evaluate the peptides for cadherin selectivity, based on their effects on N-cadherin mediated aggregation. Immunoblot analysis detected high levels of R-cadherin and no N-cadherin expression in R-cadherin clone 8 (R-cad8), while high levels of N-cadherin expression and no R-cadherin expression was found in N-cadherin clone 3 (N-cad3), as shown in FIG. 7. Immunofluorescence confirmed the expression of the appropriate cadherin in these chosen clones. When tested in the aggregation assay, the morphology of the transfected cell lines was altered as a result of cadherin transfection. […]

pIC50: −log10 of the molar value. Where a SMILES comes first, the peptide text is derived from it. Bridges are numbered along the chain shown (N, C = ends). Where no end group is shown, it is not given here.

With `CC(=O)N[C@H]1CSSC[C@@H](C(N)=O)NC(=O)[C@H](C(C)C)NC(=O)[C@H](C)NC(=O)[C@H](Cc2c[nH]cn2)NC1=O` [cyclic HAV, CHAVC], the negative logarithm of the IC50 (pIC50) (in general, the IC50 on a negative log10 scale, so that one unit is a factor of ten) at R-cadherin (2 hours incubation, 5 mM CaCl2, read-out: IC50, inhibition of R-cadherin mediated aggregation) was 3.70 to 3.82; on N-cadherin, 3.70 to 3.82. `CC[C@H](C)[C@@H]1NC(=O)[C@@H](NC(C)=O)CSSC[C@@H](C(N)=O)NC(=O)[C@@H]2CCCN2C(=O)[C@H](CC(N)=O)NC1=O` [cyclic INP, cyclic CINPC] (Ac-CINPC-NH2; disulfide 1-5): the pIC50 on N-cadherin is over 3.52. As for “cyclic CSDIC (disulfide 1-5; also: peptides said to be amide-blocked at N-terminus and acetylated at C-terminus (as worded)) [cyclic SDI, control cyclic peptide CSDIC]”, in the assay with R-cadherin, the “effect on R-cadherin mediated aggregation” value is on record as “little effect”. For the same compound, in the assay with N-cadherin, the “effect on N-cadherin mediated aggregation” value was “little effect”. Consider “cyclic CRADC (disulfide 1-5; also: peptides said to be amide-blocked at N-terminus and acetylated at C-terminus (as worded)) [cyclic RAD, control cyclic peptide CRADC]”, for which the “effect on R-cadherin mediated aggregation” value in the assay with R-cadherin is “little effect”. Also, the “effect on N-cadherin mediated aggregation” value in the assay with N-cadherin is reported as “little effect”.
